Measured values taken from the supplement of paper PMC9170038.

Columns and labels:
[1] = test system: MS2 coat protein; assay: apparent KD of MS2 coat protein; designed switch direction (-1 OFF switch, 1 ON switch): -1; higher = weaker reporter binding; conditions: Eterna round: R98
Method: (§1)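 RNA-MaP: designed FMN/MS2 RNA switches (84 nt design region) are transcribed on-chip within common flanks and titrated with SNAP-549-labelled MS2 coat protein (about 1-3000 nM) in 100 mM Tris pH 7.5, 80 mM KCl, 4 mM MgCl2, without or with 200 uM FMN. Median apparent KD per design; activation ratio = KD,OFF / KD,ON.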

[2] = test system: MS2 coat protein; assay: apparent KD of MS2 coat protein; higher = weaker reporter binding; conditions: Eterna round: R101
Method: as §1

Sequence	apparent KD of MS2 coat protein ([1]; input ligand: FMN 200 uM)	apparent KD of MS2 coat protein ([1]; input ligand: none)	apparent KD of MS2 coat protein ([2]; input ligand: FMN 200 uM)	apparent KD of MS2 coat protein ([2]; input ligand: none)
ACCAUUUACUAAUCCUCUAUACAUGAGGAUCACCCAUGUUCUGAGGAUAUCAUCGUUCGCCGCGUUGAGAAGGCAGAGCAUUCG [AriestionMod 1 - Jieux - Exclusion NG 3]	0.0408 µM	0.0268 µM	–	–
GAGGACUGUAAUAAUGUAGAAAUACAUGAGGAUCACCCAUGUAAGGAUAUCGUCAGGAAUACUGACGAGAAGGUACAUCAGUCC [Exclusion NG 3/10-A2]	0.0248 µM	0.0173 µM	–	–
GGUUGUUACGCAGGAUAUUGCCAACAGGCAGUAGGAUAUCCGAAAGGAGAAGGAUCGCCAACAGGCGAGAAGGGCGGGUUAACC [pwkr exNG2 2xF7 2FMN.10.5]	0.121 µM	1.24 µM	–	–
GUCACGAAUGUAGGAUAUCGAGUGGAAUACACUCGAGAAGGACAUGAGGAUCACCCAUGUAAAAUGAAAGAUAAUAAACGUGAC [Exclsuion NG 1/2-B1]	0.0517 µM	0.018 µM	–	–
UAUAAUCUUUAAGGAUAUGACUCCGUUUCGGAGUCAGAAGGUGAGGAUCACCCACCUAGCUCAGGGUCGUUUGACCCUGAGCAU [#AddUracilToBrourdLoops 9 - Jieux - Exclusion NG1] (puzzle (switch architecture): Exclusion NG 1)	–	–	0.0106 µM	0.00887 µM
UAUAUAAUUAAGAGCUGGUCCAAAACAUGAGGAUCACCCAUGUAGGAUAUCAGCACGAUAAGUGCUGAGAAGGACAACCAGCUC [Denovo 85]	0.0152 µM	0.0172 µM	–	–
UAUAUAUAGGCAGGAUAUACAUGUAUAUAUAAUAUAUUAUAUAUUAUUACAUGAGGAUCACCCAUGUAGAAGGGCCAUAAUAUA [LRO035_Exclusion NG 2]	0.0527 µM	0.03 µM	–	–
UCGACGAAAGUCGAACGAUGUAGCAGAAGGACAUGAGGAUCACCCAUGUCAGCUGUAACAGCCAUGUAGGAUAUGCUACAUCGG [salish99_ISLExNG3_007 #endbits investigation] (puzzle (switch architecture): Inverted Small Loop Exclusion NG 3)	–	–	–	0.00443 µM
UCGGCCCGGGAGAAGGACAUGAGGAUCACCCAUGUCGCCGGGCCCGGGAAACCGGGCCCGGCCAUGUAGGAUAUCCCGGGCCGA [#This is a good prank 2] (puzzle (switch architecture): Inverted Exclusion NG 2)	–	–	0.00479 µM	0.00459 µM
UGUCGGAGCAGAGGAUAUUACAUGAGGAUCACCCAUGUAUGAACCAAUAGCUGGAAACAGCAAUGUAAGAAGGCUGCUCCGACA (puzzle (switch architecture): Exclusion NG 2)	–	–	0.177 µM	0.0123 µM
UUAUUUUUACAGAAGGUUUAAUAAUAUAUAAGAGAAGGAUAUGUAACAUGAGGAUCACCCAUGUUUCACCCAUAUGAGGAUCAU [Astosinvert#10] (puzzle (switch architecture): Inverted Exclusion NG 1)	–	–	0.00794 µM	0.00828 µM
UUCUGUGCCCAAAGUUAAAGCACAUGAGGAUCACCCAUGUGAAAGGAUAUGUGGCAUGUAAUGUUAUAGAAGGUUCACAAUCAA [Reveention]	0.0228 µM	0.0142 µM	–	–
